The data set concerns the molecule itself. The data set can be described thus: dynamic light scattering; 10 µM ELP in PBS on a heating ramp (7-40 °C in the legend, 7-37 °C in the methods), scattering angle 90°; nanoparticles between the CMT and Tt,bulk (18.5 and 27 °C for ELP-[*M1V3-40]-[I-90]; 19 and 31 °C for ELP-[*M1V3-60]-[I-90]).

Data on 1 protein can be found in article PMC8125372, “Refining the Design of Diblock Elastin-Like Polypeptides for Self-Assembly into Nanoparticles” (Polymers, 2021).

B1: ELP-[*M1V3-40]-[I-90] (other)
chain: MWVPGVGVPGMGVPGVGVPGVGVPGVGVPGMGVPGVGVPGVGVPGVGVPGMGVPGVGVPGVGVPGVGVPGMGVPGVGVPGVGVPGVGVPGMGVPGVGVPGVGVPGVGVPGMGVPGVGVPGVGVPGVGVPGMGVPGVGVPGVGVPGVGVPGMGVPGVGVPGVGVPGVGVPGMGVPGVGVPGVGVPGVGVPGMGVPGVGVPGVGIGVPGIGVPGIGVPGIGVPGIGVPGIGVPGIGVPGIGVPGIGVPGIGVPGIGVPGIGVPGIGVPGIGVPGIGVPGIGVPGIGVPGIGVPGIGVPGIGVPGIGVPGIGVPGIGVPGIGVPGIGVPGIGVPGIGVPGIGVPGIGVPGIGVPGIGVPGIGVPGIGVPGIGVPGIGVPGIGVPGIGVPGIGVPGIGVPGIGVPGIGVPGIGVPGIGVPGIGVPGIGVPGIGVPGIGVPGIGVPGIGVPGIGVPGIGVPGIGVPGIGVPGIGVPGIGVPGIGVPGIGVPGIGVPGIGVPGIGVPGIGVPGIGVPGIGVPGIGVPGIGVPGIGVPGIGVPGIGVPGIGVPGIGVPGIGVPGIGVPGIGVPGIGVPGIGVPGIGVPGIGVPGIGVPGIGVPGIGVPGIGVPGIGVPGIGVPGIGVPGIGVPGIGVPGIGVPGIGVPGIGVPGIGVPGY
modifications: Thioether side chain of Met residues oxidized into sulfoxide M(O) with H2O2 (11 Met); two Met residues were found oxidized into sulfone M(O2)
notes: N-terminal leader of the elastin-like polypeptide; C-terminal residue; also called oxidized ELP-[M1V3-40]-[I-90]; source: E. coli BL21 Star (DE3), purified (inverse transition cycling with ammonium sulfate, desalting), then oxidised with H2O2
Take B1: the binding result is “binds”.
